Experimental findings from patent publication US20220073643A1 are described below.

Where a chain is given by its changes, count along the chain named.

B1: 194A2F7 (antibody, V domains shown)
VH: QIQLVQSGPELKKPGETVKISCKASGYTFTDYLIHWVKQAPGKGLKWMGWINTETGEPTYADDFKGRFALSLETSASTACLQINNLKNEDTATYFCARIYYGNSFDYWGQGTTLTVSS
VL: DIVMTQSPSSLPVTAGEKVTMTCKSSQNLLNSGNQKSYLTWYQQKPGQPPKLLIYWASTRETGVPDRFTGSGSGTDFTLTISSVQAEDLAVYYCQNAYRFPFTFGAGTRLELK
B2: 257B1G9 (antibody, V domains shown)
VH: QAYLQQSGAELVRSGASVKMSCKASGYTFTSHNMHWVKQTPGQGLEWIGYIYPGNGGTNYNQKFKGKATLTADTSSSTAYMQISSLTSEDSAVYFCTRDYYGNSFAYWGQGTLVTVSA
VL: DIVMTQSPSSLTERAGERVSMSCKSSQSLFNSGNQKNYLTWYQQKPGQPPKLLIYWASTRESGVPDRFTGSGSGTDFTLTISSVQAEDLAVYYCQNDYRYPFTFGAGTKLELK
B3: 258D11C4 (antibody, V domains shown)
VH: B2 VH with T30S
VL: B2 VL with R14K, E61Q, R99W, Y100F
B4: 273C10E5 (antibody, V domains shown)
VH: QVQLQQSGAELVKPGASVKLSCKASGYTFTSFGINWLRQRPEQGLEWIGWIFPGDGNSKYNENFKGKATLTTDKSSSTAYMQVTRLTSEDSAVYFCARFYYGNSFANWGQGTLVTVSA
VL: B2 VL with E13V, R14T, R18K, S20T, F30L, S58A, T69A, R99F
B5: 260F8A6 (antibody, V domains shown)
VH: B2 VH with K23R, G57N, N59Y, S77N, S84N, T97V, A106V
VL: B2 VL with I2V, R14K, A15T, R18K, F30L, T69I, V84L, A86T, D97N, R99M
B6: 275H9A2 (antibody, V domains shown)
VH: B2 VH with K23R, T28S, T58S, N59Y, T69I, A106V
VL: B2 VL with I2V, R14K, A15T, R18K, F30L, V84L, A86T, D97N, Y98F
B7: 267H5F12 (antibody, V domains shown)
VH: B2 VH with Y52S, G57Y, K65R, A106T
VL: B2 VL with R14K, D76E, D97N, R99W, Y100F
B8: 262H9H6 (antibody, V domains shown)
VH: B2 VH with Y52S, G57Y, K65R, A106T
VL: B2 VL with R14K, D76E, D97N, R99W, Y100F
B9: 267B2C5 (antibody, V domains shown)
VH: QVQLKESGPGLVAPSQSLAITCTVSGFSLTTYGVSWVRQPPGKGLEWLGVIWGDGSTHYHSALISRLSIRKDNSKSQVFLKVNSLQTDDTATYYCGKPGRGNAMDYWGQGTSVTVSS
VL: B2 VL with E13V, R14T, R18K, S20T, F30L, P49S, R99I, F102L, A106G, K109T
B10: 257G7F7 (antibody, V domains shown)
VH: B2 VH with M34L, G57N
VL: B2 VL with R14K, D97N, R99W, Y100F
B11: 260G9E8 (antibody, V domains shown)
VH: B2 VH with Y3D, T30A, N59K, K65T, S84T, T97A
VL: B2 VL with R14K, R18K, S22R, F30L, E87D, R99M, Y100F
B12: 257F1E11 (antibody, V domains shown)
VH: B2 VH with M34I, G42R
VL: B2 VL with R14K, V91I, R99W
B13: 275B2G2 (antibody, V domains shown)
VH: EVMLVESGGGLVKPGGSLKLSCAASGFTFRDYTMSWVRQTPEKRLEWVATSIIGGTYTYYPDSVKGRFTISRDNVKNTLYLQMSSLRSEDTAMYYCSRLGRGNAMDYWGQGTSVTVSS
VL: B2 VL with E13V, R14T, R18K, S20T, F30L, R99S, A106S, L112I
B14: 257G7B9 (antibody, V domains shown)
VH: B2 VH with M34L, G57N
VL: B2 VL with R14K, D97N, R99W, Y100F
B15: 265E6G2 (antibody, V domains shown)
VH: B2 VH with H32Y, T97A
VL: DLVMTQSPSSLTVTAGEKVTMSCKSSQSLLNSGNQKNYLTWYQQKPGQPPKLLIYWASTRESGVPDRFTGSGSGTDFTLTISNIQAEDLAVYYCQNDYSYPLPFGAGTKLELR
B16: 259B4D4 (antibody, V domains shown)
VH: EIQLQQSGPELMKPGASVRISCKASGYSFTSYYMHWMKQSHVKSLEWIGYIDPFNGNTRYNQKFKDKATLTVDKSSTTAYMHLSSLTSEDSAVYFCASLRFFAYWGQGTLVTVSA
VL: B15 VL with L2I, K24N, T59S, N83T, I84V, Y100F, P103T, K109R, R113K
B17: 273F3D4 (antibody, V domains shown)
VH: B9 VH with A19S, S28A, V82L, G96A
VL: B15 VL with L2I, T5S, P49S, N83S, I84M, S99I, P103T, K109M, R113K
B18: 266B11F7 (antibody, V domains shown)
VH: QVQMKESGPGLVAPSQSLSITCTVSGFSLTTYGVTWVRQPPGKGLEWLGVIWGDGSTNYHSALTSRLRISKDKSKSQVFLKLSSLQTDDTATYYCAKPGRGNALDYWGQGTSVTVSS
VL: B15 VL with L2I, S22R, I54V, I81V, N83S, I84V, S99I, Y100F, P103T, R113K
B19: 263E9F3 (antibody, V domains shown)
VH: EIQVQQSGPELMKPGASVKISCRSSGYSFTSYYIHWVKQSRGKSLEWIGYIDPFSGGTRYNQKFEGKATLTVDKSSTTAYMHLSSLTSEDSAVYYCASLRFFAYWGQGTLVTVSA
VL: DIVMTQSPSSLTVTAGEKVTMTCKSSQSLLNSGNQENYLTWYQQKPGQPPELLISRASTRQSGVPDRFTGSGSGTDFTLTISSVQTEDLAVYYCQNDYSYPLTFGAGTKLELK

In this test the target is Claudin18.2-His protein (human). The test is described as follows: indirect ELISA on coated Claudin18.2-His.
With B1, the EC50 (as a rule, the concentration that produces a half-maximal response) is 0.0438 mg/L.

B2 showed an EC50 of 0.00793 mg/L.

For B3, the EC50 was 0.0153 mg/L.

In the case of B4, the half-maximal effective concentration (EC50) turned out to be 0.0201 mg/L.

Take B5: the EC50 amounted to 0.0151 mg/L.

The molecule B6 came in with an EC50 of 0.0245 mg/L.

As to B7, the EC50 stood at 0.00822 mg/L.

For the molecule B8, the EC50 came out at 0.014 mg/L.

B9: the EC50 is 0.0113 mg/L.

As to B10, the EC50 stood at 0.0198 mg/L.

In turn, B11 came in with an EC50 of 0.0358 mg/L.

Consider B12, for which the EC50 was 0.0262 mg/L.

For B13, the EC50 is 0.028 mg/L.

In turn, B14 yielded an EC50 of 0.00978 mg/L.

For the molecule B15, the EC50 was found to be 0.0183 mg/L.

For the molecule B16, the EC50 was 0.0197 mg/L.

B17: the EC50 is 0.0233 mg/L.

Consider B18, for which the EC50 is 0.0168 mg/L.

In turn, B19 registered an EC50 of 0.0113 mg/L.
